B26: human Bcl-XL a.a. 1-205 with C-terminal avi-6his tag (other)
chain: SQSNRELVVDFLSYKLSQKGYSWSQFSDVEENRTEAPEGTESEMETPSAINGNPSWHLADSPAVNGATGHSSSLDAREVIPMAAVKQALREAGDEFELRYRRAFSDLTSQLHITPGTAYQSFEQVVNELFRDGVNWGRIVAFFSFGGALCVESVDKEMQVLVSRIAAWMATYLNDHLEPWIQENGGWDTFVELYGNNAAAESRKGLNDIFEAQKIEWHEGSHHHHHH
notes: also called BCL2L1

Columns and labels:
[1] = molecular target: T1, Epstein-Barr virus BHRF1 a.a. 1-161 with C-terminal avi-6his tag (Epstein-Barr virus); assay: yeast surface display; BHRF1 titrated on clonal yeast showing the design, fluorescence by flow cytometry (apparent KD)
T1 construct: also called EBV BHRF1; BHRF1-biotin
T1 chain: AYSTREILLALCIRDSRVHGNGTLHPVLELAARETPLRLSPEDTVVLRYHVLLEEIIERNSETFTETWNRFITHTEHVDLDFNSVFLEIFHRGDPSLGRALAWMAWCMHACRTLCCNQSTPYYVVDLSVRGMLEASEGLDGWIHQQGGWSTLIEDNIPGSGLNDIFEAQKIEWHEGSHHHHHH

[2] = molecular target: T1, Epstein-Barr virus BHRF1 a.a. 1-161 …; assay: yeast display library, FACS sort at 100 nM BHRF1, deep sequencing
[3] = molecular target: T1, Epstein-Barr virus BHRF1 a.a. 1-161 …; assay: yeast display library, FACS sort at 400 nM BHRF1, deep sequencing
[4] = molecular target: B26; assay: initial BLI screening (column 'Binds target?')
[5] = molecular target: T2, Bim-BH3 motif fused to the C-terminus of maltose-binding protein (MBP) (human, UniProt O43521 141-166); assay: BLI, biotinylated target on streptavidin sensor, MBP-Bim-BH3 in solution
T2 construct: domain: Bim-BH3 motif; also called MBP-Bim-BH3
T2 sequence (O43521 141-166 limits assumed): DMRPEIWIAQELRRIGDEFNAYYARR

[6] = molecular target: T3, human Mcl-1 a.a. 172-327 with C-terminal avi-6his tag (human); assay: BLI at a single analyte concentration (50 nM, 600 s association, then buffer); biotinylated BCL2 protein on a streptavidin sensor
T3 chain: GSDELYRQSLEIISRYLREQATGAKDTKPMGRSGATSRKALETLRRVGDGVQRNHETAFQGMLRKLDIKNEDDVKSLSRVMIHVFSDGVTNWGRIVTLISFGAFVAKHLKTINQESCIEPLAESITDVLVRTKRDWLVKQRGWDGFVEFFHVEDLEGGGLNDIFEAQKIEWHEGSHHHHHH

B1: Index 04 (designed binder)
chain: GLLAEEGREQAEERLREARKKAEKAGDKIKDLAKYGQDSDDEKKKFMLKWIAAQLMVIGDMFNHAMEALWELLRRLKNNKISWDAFLKAKEEIEREEKEAARDSREKGREAAKMIDQG
[1]
  Kd: 44 nM
[2]
  Log2 enrichment ratio: 2.11 log2
[3]
  Log2 enrichment ratio: 1.96 log2

B2: X-CDP04 (designed binder)
chain: ADPKKVLDKAKDQAENRVRELKQKLEELYKEARKLDLTQEDRKRLLLQYIAAMLAAIGDLENAIRWAKREADKLKKAGLVNSQQLDELKRRLEELAKEAAEKAADYGEEFNLKLEY
[4]
  binding result: binds

B3: X-CDP03 (designed binder)
chain: ADPKKVLDKAKDQAENRVRELKQKLEELYKEARKLDLTQEMRRELRNRAIAAILQAIGDLLNAIQQAKDEADKLKKAGLVNSQQLDELKRRLEELQNEAAEKAADYGEEFWLKLEY
[4]
  binding result: binds

B4: Index 01 (designed binder)
chain: GKRLEETVEETERRLREALREVYLLILLLAEEAKKKDLKEQNRHEYVFKWIAFMLMAIGDIFNIAEESKRRLDLFAKWGLHDRNKIDEAKKKIDKLALEAIERAKKYGDWFLNELDKG
[1]
  Kd: 39 nM
[2]
  Log2 enrichment ratio: 4.02 log2
[3]
  Log2 enrichment ratio: 3.54 log2

B5: human Bcl-B a.a. 11-175 with C-terminal avi-6his tag (other)
chain: ADPLRERTELLLADYLGYCAREPGTPEPAPSTPEAAVLRSAAARLRQIHRSFFSAYLGYPGNRFELVALMADSVLSDSPGPTWGRVVTLVTFAGTLLERGPLVTARWKKWGFQPRLKEQEGDVARDCQRLVALLSSRLMGQHRAWLQAQGGWDGFCHFFRTPFPGLNDIFEAQKIEWHEGSHHHHHH
notes: also called BCL2L10
[5]
  Kd: 7 nM

B6: M-CDP01 (designed binder)
chain: ADPKKVLDKAKDQAENRVRELKQELEELYKKARKLDLTQEERRKLEEEAIAALLRAIGDIYNAIQQALNEADKLKKAGLVNSQQLDELKRRLEELKKEASKKARDYGLEFFEKLDY
[6]
  binding result: binds

B7: X-CDP01 (designed binder)
chain: ADPKKVLDKAKDQAENRVRELKQKLEELYKEARKLDLTQEMRRELQARYIAAMLAAAGDIMEAIQQAKNEADKLKKAGLVNSQQLDELKRRLEELAKEAARKAEDYGREFQLKLEY
[4]
  binding result: binds

B8: X-CDP11 (designed binder)
chain: ADPKKVLDKAKDQAENRVRELKQKLEELYKEARKLDLTQEMRRELRDRYIAAMLAAIGDLFNAIQWAKQEADKLKKAGLVNSQQLDELKRRLEELAEEAARKAEDYGEEFKLKLEY
[4]
  binding result: binds

B9: X-CDP10 (designed binder)
chain: ADPKKVLDKAKDQAENRVRELKQKLEELYKEARKLDLTQEMRRELRERYIAAMLAAAGDLWYAITQAKREADKLKKAGLVNSQQLDELKRRLEELLEEAARKAEDYGEEFRLKLEY
[4]
  binding result: binds

B10: X-CDP02 (designed binder)
chain: ADPKKVLDKAKDQAENRVRELKQKLEELYKEARKLDLTQEMRKELVARYIAAMLAAAGDIVQAIQDAKNEADKLKKAGLVNSQQLDELKRRLEELAKEAARKATDYGREFQLKLEY
[4]
  binding result: binds

B11: X-CDP05 (designed binder)
chain: ADPKKVLDKAKDQAENRVRELKQKLEELYKEARKLDLTQEMRRQLRDQYIAAMLAAIGDLLNAIMQAKREADKLKKAGLVNSQQLDELKRRLEELEEEAAQKAADYGQEFLLKLEY
[4]
  binding result: binds

B12: Index 34 (designed binder)
chain: GKFKKLFENYAELFARWVADKGKKLAEELREKAEKGLKLQKLWLIFTMIWIAIMLMSIGDAFNLALLAELWVQAAKNYGWLRDNEADEAEDRVRKFADEASRRALEKGLEALRKILEG
[2]
  Log2 enrichment ratio: -3.41 log2
[3]
  Log2 enrichment ratio: -2.21 log2

B13: Index 02 (designed binder)
chain: GKSLLGIALEALEEAKRDLEKAKKQMEEMLKKKWKFDTTRDLKARASAEWIAAALKAIGDRFNAKLLIELGLDELFNKGLITQDIKEDIKRRAEEIFEKIERLIKQAIKDKDRFEKLG
[1]
  Kd: 110 nM
[2]
  Log2 enrichment ratio: 3.92 log2
[3]
  Log2 enrichment ratio: 3.43 log2

B14: Index 29 (designed binder)
chain: GEVAKDLAKLAIDLAKKLMLLFWWFFELFKLFAKFTDEWQEWKARGTAFWIALSLAAIGDFFNARRRAELQAREGKQKGLTTEEKEKRWREHLKEAWEKLEKISRLAFLFAQEAENQG
[2]
  Log2 enrichment ratio: -1.66 log2
[3]
  Log2 enrichment ratio: -2.43 log2

B15: Index 36 (designed binder)
chain: GYTKEWIRDRAKEELDRFADEAKDKADKIRDDFEKRDDKNQIAAELTKKWIAAELEAIGDAFNRAEEAKERLKKLLKLGLTRKEEAEEAAEKLEKLEKEASEKLSKIAHEVSKHDDQG
[2]
  Log2 enrichment ratio: -3.6 log2
[3]
  Log2 enrichment ratio: -3.65 log2

B16: Index 37 (designed binder)
chain: GDFWLKAIEIAGGRMLERARESWYRALYFILMVKLFYPSDDLRRIFTLRWIAESLKLIGDAFNLFELARELLELYYKYGWITLEKALKALWILLKLEEIFSKASKDLGERLAEEIERG
[2]
  Log2 enrichment ratio: -3.13 log2
[3]
  Log2 enrichment ratio: -2.14 log2

B17: Index 33 (designed binder)
chain: GKQWQEAFEEARRRIEEKAREFEDRAKKEALLHLFFIPHDKEIADNSKKWIAWALMLIGDIFNLEEEAAERARRHVKRGEISEDDAKQIRKRLQEQAKRAAWWMRYWGEESAKFAFIG
[2]
  Log2 enrichment ratio: -4.18 log2
[3]
  Log2 enrichment ratio: -3.85 log2

B18: Index 35 (designed binder)
chain: GGDGVKELEELEKRKDEKKNKAEDRIKKFKDEAKYADDRTEDKEKLAHRWIALALDIIGDAFNLKEEARRRFLRHKFRGELDDSKKEYAEKEMKRFEDDVEKDAEELAQKAKEAFKEG
[2]
  Log2 enrichment ratio: -3.51 log2
[3]
  Log2 enrichment ratio: -3.29 log2

B19: Index 03 (designed binder)
chain: GLDHDKIVDEARKKMEKKIREAKDKAKEFVLKALDNNHDLKQFRELAHKWIALMLMAIGDAFNIMMEAKRKAEWLREQGQQDEDKAEEAKEKLDKAFKEAAERFEEIAKIYGKQAKNG
[1]
  Kd: 160 nM
[2]
  Log2 enrichment ratio: 2.52 log2
[3]
  Log2 enrichment ratio: 3.17 log2

B20: Index 31 (designed binder)
chain: GDQADKIKDKIKDEAKKKADEFKKRLEQFREYLEKVYSDDLKEIYLTIFWIALALMLIGDAFNEKMLLEWEFKERKKRNLRHEEELKEEKKKREEAEKALEWASKYASQVGKEAAEEG
[2]
  Log2 enrichment ratio: -3.55 log2
[3]
  Log2 enrichment ratio: -4.21 log2

B21: Index 30 (designed binder)
chain: GSRWFDAEDKMRERKDRAILQLLFMLWIIFYILWYGDDTEEAKRKAMAAWIALALIGIGDIFNAEAEFLEELERAIKQGQVSDQLKEELLKRMEDDKRDLEKRLYEFLLKALLQWMQG
[2]
  Log2 enrichment ratio: -2.58 log2
[3]
  Log2 enrichment ratio: -4.1 log2

B22: M-CDP05 (designed binder)
chain: ADPKKVLDKAKDQAENRVRELKQKLEELYKEARKLDLTQEERHRLETKALSALLAAIGDILDAIMQALQEAAKLKKAGLVNSQQLDELKRRLEELRKEASRKARDYGREFWLKLDY
[6]
  binding result: binds

B23: Index 32 (designed binder)
chain: GGDENKLKDYVKDEIERGLNEIEDLARKIEQLARRFFPKDEERMKFTMWWIAAALMAIGDIFNAKEYARERAEEIRRKGLRREEEARRIEKFIEEEAEKAAKKAAKLGDHLAEELFRG
[2]
  Log2 enrichment ratio: -2 log2
[3]
  Log2 enrichment ratio: -2.56 log2

B24: X-CDP08 (designed binder)
chain: ADPKKVLDKAKDRAENRVRKLKKELEKLYKEARKLDLTQEQRDRIINAAIAAMIAAFGDIFHAIMEAKEEARKLKKAGLVNSQQLDELKRRLDELDEEAAQRAEKLGKEFRLKFEY
[4]
  binding result: binds

B25: X-CDP06 (designed binder)
chain: ADPKKVLDKAKDRAENRVRELKKKLEKLYKEARKLDLTQEQRNKIINAAMAAMIAAFGDIFHAIQEAKEEAKKLKKAGLVNSQQLDELKRRLDELDEEAAQRAEKLGKEFNLKFEY
[4]
  binding result: binds

## B26
[5]
  Kd: 1.56 nM

From US20160376333A1 (University of Washington, published 2016)
